Experimental data taken from patent US20240018513A1, “SYNTHETIC INTRONS FOR TARGETED GENE EXPRESSION” (FRED HUTCHINSON CANCER CENTER, priority 2020, published 2024).
Substitutions are numbered along the chain they refer to.

B1: intron_9600: 158 nt synthetic intron, insertion 89_TACTAACA consensus branchpoint; SEQ ID NO 62/70 (nucleic acid)
DNA 1: GTGAGTCGCCCCCTTCCTCTGCTCCGAGAGGGAAATGGGAATTAGGGTGGTGGCAGAGCCCAAAGAGGCCTTGTAGGCCATGGTAAGGCTACTAACAATTTCTATGTTTTATTTTACTTTGTCTTTATCCTAAAATGCCATTGGCAAGTTTATTGCAG
DNA 2: B1 DNA 1
B2: intron_2258: 100 nt MTERFD3 intron 1-derived synthetic intron, deletion 15to65; SEQ ID NO 57/65 (nucleic acid)
DNA 1: GTGAGTCGCCCCCTTAGGCCTTGTAGGCCATGGTAAGGCATTTCTATGTTTTATTTTACTTTGTCTTTATCCTAAAATGCCATTGGCAAGTTTATTGCAG
DNA 2: B2 DNA 1
modifications: expressed or natural sequence
B3: intron_13121: 150 nt control synthetic intron, GT_to_CC + AG_to_CC splice site mutations; SEQ ID NO 56/64 (nucleic acid)
DNA 1: CCGAGTCGCCCCCTTCCTCTGCTCCGAGAGGGAAATGGGAATTAGGGTGGTGGCAGAGCCCAAAGAGGCCTTGTAGGCCATGGTAAGGCATTTCTATGTTTTATTTTACTTTGTCTTTATCCTAAAATGCCATTGGCAAGTTTATTGCCC
DNA 2: B3 DNA 1
B4: intron_4095: 150 nt synthetic intron, 138_AtoC-139_GtoC (cryptic 3′ss at −11 removed); SEQ ID NO 60/68 (nucleic acid)
DNA 1: B3 DNA 1 with C1G, C2T, A139C, G140C, C149A, C150G
DNA 2: B3 DNA 1 with C1G, C2T, A139C, G140C, C149A, C150G
B5: intron_2790: 150 nt synthetic intron, mutation 148_AtoG (canonical 3′ss); SEQ ID NO 59/67 (nucleic acid)
DNA 1: B3 DNA 1 with C1G, C2T, C149G, C150G
DNA 2: B3 DNA 1 with C1G, C2T, C149G, C150G
B6: intron_8499: 150 nt synthetic intron, 89/95/102/107 AtoG branchpoint ablation; SEQ ID NO 61/69 (nucleic acid)
DNA 1: B3 DNA 1 with C1G, C2T, A90G, A96G, A103G, A108G, C149A, C150G
DNA 2: B3 DNA 1 with C1G, C2T, A90G, A96G, A103G, A108G, C149A, C150G
B7: intron_control: 250 nt parent synthetic intron from MTERFD3 intron 1 (first 100 and last 150 nt); SEQ ID NO 63/71 (nucleic acid)
DNA 1: GTGAGTCGCCCCCTTCCTCTGCTCCTGGGCGTGTTCCTCACCAGCGGCGCCGCAGCGGTCAGGGCCCGCAAAACCCCACGCCTCGCCAGACGCTCAGCTCCAGGAAGCAAATGCAGCTGGTGCAGGAGAGGGAAATGGGAATTAGGGTGGTGGCAGAGCCCAAAGAGGCCTTGTAGGCCATGGTAAGGCATTTCTATGTTTTATTTTACTTTGTCTTTATCCTAAAATGCCATTGGCAAGTTTATTGCAG
DNA 2: B7 DNA 1

Key:
Assay type in all cases: cell-based
[1] = system: WT K562 cells; test: Mini-screen: pooled synthetic intron mini-library in HSV-TK, GCV treatment, full-length intron sequencing from genomic DNA; conditions: genotype WT (SF3B1+/+) K562; GCV 100 ug/mL; day 6; vector hPGK-PuroR-P2A-HSV-TK
Description: (§1) Therefore, a massively parallel splicing assay was developed to map and functionally interrogate key sequence features within the synthetic intron. First, a pilot mini-library of eight synthetic introns was synthesized, seven of which were much shorter (lengths of 100-158 nt) than the parent synthetic intron (synMTERFD3i1-250), and each with one or more perturbations to potentially critical features (FIG. 2E). This mini-library was cloned into HSV-TK, introduced into WT or SF3B1-mutant K562 cells with a lentiviral vector at a low multiplicity of infection, and treated with GCV. Relative depletion of each construct was measured by high-throughput sequencing of the entire introns from genomic DNA after six days of treatment (TABLE 1).
(§2) Each synthetic intron used in the mini-library was ordered individually as a gBlock (Integrated DNA Technologies), consisting of the desired intron flanked by homology arms for cloning (5′ arm: […] (SEQ ID NO:158); 3′ arm: […] (SEQ ID NO:159; TABLE 3). The gBlocks were then mixed in equal proportions before being cloned into hPGK-PuroR-P2A-HSV-TK using a previously published strategy for pooled cloning (Thomas, J. D. et al. RNA isoform screens uncover the essentiality and tumor-suppressor activity of ultraconserved poison exons. Nature genetics 52, 84-94 (2020), incorporated herein by reference in its entirety). This intron mix was then amplified using NEBNext High Fidelity Ready Mix (New England Biolabs) and purified using 1.8×AMPure XP SPRI beads (Beckman Coulter). The backbone for the library was amplified using Q5 polymerase (New England Biolabs). The library was transformed and amplified using Endura ElectroCompetent Cells (Lucigen, 60242-2) and large LB plates. The library was maxiprepped using a Macherey-Nagel MaxiPrep kit (Thermo Fisher Scientific, Cat 740414.10).
(§3) WT or SF3B1-mutant K562 cells were infected with lentivirus encoding the mini-library at an MOI of 0.3 and untreated or treated with GCV (100 ug/mL) for 6 days. Genomic DNA was collected at day 6 and the resulting Illumina libraries were sequenced with 2×150 bp reads (Illumina MiSeq). Depletion/enrichment of each construct was estimated as follows. For each sample, reads were normalized to the total reads mapped. The relative fraction of reads mapping to each intron was then estimated by dividing the numbers of normalized reads mapped to an intron by the total reads mapped in the sample. The standard deviation was calculated using the sample proportion P for each intron (σ=sqrt [P(1−P)/n]). A fold-change was calculated for each intron by dividing the proportion of the intron in the treated GCV samples by the fraction of the intron in the untreated samples. Error propagation was used to estimate the standard deviation. The final relative fold-changes were computed by normalizing fold-changes such that the fold-change of synMTERFD3i1-250 in the pilot screen was identical to the experimentally measured fold-change in a single-construct experiment (FIG. 2C, 100 μg/mL of GCV).

[2] = system: SF3B1-mutant K562 cells; test: as above; conditions: for fold-change (estimated fold-change in intron abundance in gDNA): genotype K700E (SF3B1+/K700E) K562, GCV 100 ug/mL, day 6, vector hPGK-PuroR-P2A-HSV-TK
Description: as §1, §2, §3

[3] = system: isogenic WT or SF3B1-mutant K562 cells; test: Single-construct cell viability (CellTiter-Glo, ATP) of cells expressing HSV-TK with synthetic intron, GCV treatment; conditions: 0-100 μg/mL GCV, 3 days
Description: This split HSV-TK sequence or an intronless HSV-TK was cloned into a lentiviral expression vector. Isogenic WT or SF3B1-mutant K562 cells were infected. Positive integrants were selected and treated with GCV (FIG. 2B).
Stable cell lines were made by transducing K562 or MCF10A cells with lentivirus at multiplicities of infection (MOIs) of 1 (FIGS. 2C, 2G, and 2H), 0.3 (mini-library), and 0.1 (full library). Positive integrants were selected by treating with puromycin (hPGK-PuroR-P2A-HSV-TK) or flow sorting for mCherry (hPGK-HSV-TK-P2A-mCherry).
Cell viability was measured for single-construct experiments in cell culture by the CellTiter-Glo Luminescent Cell Viability Assay (Promega). For FIG. 2C, K562 cells expressing HSV-TK with the indicated synthetic introns were seeded at a density of 10,000 cells/100 μL/well in a 96-well plate in biological triplicate, and then treated with 0-100 μg/mL GCV or untreated (negative control). Viability measured after 3 days of treatment. For FIG. 2G, K562 cells expressing HSV-TK with the indicated synthetic introns were seeded at a density of 5,000 cells/100 μL/well in 96-well plate in biological triplicate, and then treated with 100 μg/mL GCV or PBS (negative control). Viability was measured after 11 days of treatment.

[4] = system: isogenic WT or SF3B1-mutant K562 cells; test: Fluorescent reporter (mEmerald interrupted by synthetic intron, mCardinal control), flow cytometry
Description: These six endogenous introns served as starting points for the development of synthetic introns that functioned as compact and modular molecular switches. […] These choices were guided by the increased complexity of the 3′ss versus 5′ss, SF3B1's functional role in 3′ss recognition, and the importance of exon length in splicing. Each split mEmerald sequence was cloned into a vector with constitutive expression of the non-overlapping fluorophore mCardinal (FIG. 1E). The resulting vectors permitted quantitative assessment of mutation-dependent protein production by measuring the ratio of mEmerald to mCardinal in cells with or without an SF3B1 mutation via flow cytometry.
Each construct was transfected into isogenic WT or SF3B1-mutant K562 cells and mutation-dependent splicing and protein production was measured. […] Mutation-dependent protein production arose from mutation-dependent splicing changes, as designed (FIGS. 6G and 6H). These proof-of-principle studies confirmed the feasibility of using synthetic introns for mutation-dependent gene expression. […]

Molecule	fold-change (estimated fold-change in intron abundance in gDNA) [1]	fold-change (estimated fold-change in intron abundance in gDNA) [2]	viability upon GCV treatment ([3]; SF3B1-mutant K562 cells)	viability upon GCV treatment ([3]; WT K562 cells)	depletion / mutation responsiveness in mini-screen ([2]; SF3B1-mutant vs WT K562, GCV, six days)	mutation-dependent specificity [4] [fold]
B1	1.112	0.2356	–	–	–	–
B2	1.279	0.4996	–	–	–	–
B3	1.226	0.8961	–	–	–	–
B4	0.3305	0.2637	–	–	–	–
B5	1.042	0.7611	–	–	–	–
B6	1.15	0.2767	–	–	–	–
B7	0.96	0.23	a rapid and dose-dependent loss of viability, indistinguishable to that caused by intronless HSV-TK	no significant differences in viability from untransduced cells	markedly depleted in SF3B1-mutant, but not WT, cells	2
